Data on one molecule can be found in doi:10.1101/2023.08.08.552478 (bioRxiv, 2023).

By Kd is commonly meant the equilibrium constant for the complex coming apart. The low end stands for higher affinity, the high end for lower affinity.

This assay concerns the target PEX5 TPR domain (C-terminal cargo-binding TPR domain of human PEX5L) (human, UniProt P50542-1 315-639). The assay is described as follows: fluorescence polarisation. On the technique in general: Polarisation of emitted light reports the rotation of a fluorescent probe.

Primed or numbered codes have the meaning given here. No end group written: not given here. FITC′ = fluorescein isothiocyanate

B1: N-terminal FITC conjugated SAPKIPSWQIPVKSPSPS PEX14 peptide (peptide)
peptide: {FITC′}-SAPKIPSWQIPVKSPSPS
On to B1, for which the affinity, expressed as Kd, was 250 µM.
